From US20220064329A1 (Novo Nordisk, published 2022)

T1: recombinant human activated Factor VII (FVIIa) (human, UniProt P08709 61-212; P08709 213-466, ten glutamate residues of the Gla domain may be gamma-carboxylated)
T1 construct: chains tethered by a disulfide bond; also called Factor VIIa; rFVIIa
T1 sequence 1: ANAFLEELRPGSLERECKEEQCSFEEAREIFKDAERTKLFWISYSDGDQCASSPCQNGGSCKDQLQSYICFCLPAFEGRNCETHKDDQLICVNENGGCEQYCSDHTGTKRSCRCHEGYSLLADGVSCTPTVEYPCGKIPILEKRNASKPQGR
T1 sequence 2: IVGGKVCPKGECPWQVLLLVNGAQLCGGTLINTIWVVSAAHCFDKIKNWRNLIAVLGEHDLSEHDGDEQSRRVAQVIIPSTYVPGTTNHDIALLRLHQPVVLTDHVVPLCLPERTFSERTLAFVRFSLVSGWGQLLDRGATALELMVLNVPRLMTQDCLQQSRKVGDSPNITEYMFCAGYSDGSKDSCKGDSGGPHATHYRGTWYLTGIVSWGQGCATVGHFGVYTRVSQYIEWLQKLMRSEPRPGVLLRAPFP


Biological target: T1, recombinant human activated Factor VII …
Assay: BLI (Fortebio)

Binder	Kd [µM]
VH SEQ ID NO 610 / VL SEQ ID NO 486 (antibody, IgG4, V domains shown, humanized 11F2; IgG4 S228P/kappa) VH: QVQLQESGPGLVKPSQTLSLTCTVSGGSITSDSAWSWIRQPPGKGLEWIGYIQYSGSTNYNPSLKSRVTISVDTSKNQFSLKLSSVTAADTAVYYCARSVNYYGNSFAVGYWGQGTLVTVSS VL: EIVLTQSPATLSLSPGERATLSCRASQGVSDYLHWYQQKPGQAPRLLIKYASQPATGIPARFSGSGSGTDFTLTISSLEPEDFGVYYCQNGHSFPLTFGQGTKLEIK	0.017
VH SEQ ID NO 618 / VL SEQ ID NO 406 (antibody, IgG4, V domains shown, humanized 11F2; IgG4 S228P/kappa) VH: QVQLQESGPGLVKPSQTLSLTCTVSGYSISSDSAWSWIRQFPGKGLEWIGYIQYSGSTNYNPSLKSRVTISRDTSKNQFSLKLSSVTAADTAVYYCARSVNYYGNSFAVGPWGQGTLVTVSS VL: EIVLTQSPATLSLSPGERATLSCRASQGVSDYLAWYQQKPGQAPRLLIKYASQPATGIPARFSGSGSGTDFTLTISSLEPEDFAVYYCQNGHSFPLTFGAGTKLEIK	0.024
VH SEQ ID NO 618 / VL SEQ ID NO 430 (antibody, IgG4, V domains shown, humanized 11F2; IgG4 S228P/kappa) VH: QVQLQESGPGLVKPSQTLSLTCTVSGYSISSDSAWSWIRQFPGKGLEWIGYIQYSGSTNYNPSLKSRVTISRDTSKNQFSLKLSSVTAADTAVYYCARSVNYYGNSFAVGPWGQGTLVTVSS VL: EIVLTQSPATLSLSPGERATLSCRASQGVSDYLAWYQQKPGQAPRLLIKYASQPATGIPARFSGSGSGTDFTLTISSLEPEDFGVYYCQNGHSFPLTFGQGTKLEIK	0.11
VH SEQ ID NO 618 / VL SEQ ID NO 414 (antibody, IgG4, V domains shown, humanized 11F2; IgG4 S228P/kappa) VH: QVQLQESGPGLVKPSQTLSLTCTVSGYSISSDSAWSWIRQFPGKGLEWIGYIQYSGSTNYNPSLKSRVTISRDTSKNQFSLKLSSVTAADTAVYYCARSVNYYGNSFAVGPWGQGTLVTVSS VL: EIVLTQSPATLSLSPGERATLSCRASQGVSDYLAWYQQKPGQAPRLLIKYASQPATGIPARFSGSGSGTDFTLTISSLEPEDFAVYYCQNGHSFPLTFGQGTKLEIK	0.024
VH SEQ ID NO 618 / VL SEQ ID NO 422 (antibody, IgG4, V domains shown, humanized 11F2; IgG4 S228P/kappa) VH: QVQLQESGPGLVKPSQTLSLTCTVSGYSISSDSAWSWIRQFPGKGLEWIGYIQYSGSTNYNPSLKSRVTISRDTSKNQFSLKLSSVTAADTAVYYCARSVNYYGNSFAVGPWGQGTLVTVSS VL: EIVLTQSPATLSLSPGERATLSCRASQGVSDYLAWYQQKPGQAPRLLIKYASQPATGIPARFSGSGSGTDFTLTISSLEPEDFAVYYCQQGHSFPLTFGQGTKLEIK	5.8
VH SEQ ID NO 618 / VL SEQ ID NO 398 (antibody, IgG4, V domains shown, humanized 11F2; IgG4 S228P/kappa) VH: QVQLQESGPGLVKPSQTLSLTCTVSGYSISSDSAWSWIRQFPGKGLEWIGYIQYSGSTNYNPSLKSRVTISRDTSKNQFSLKLSSVTAADTAVYYCARSVNYYGNSFAVGPWGQGTLVTVSS VL: EIVLTQSPATLSLSPGERATLSCRASQGVSDYLAWYQQKPGEAPRLLIKYTSQPATGIPARFSGSGSGTDFTLTISSLEPEDFAVYYCQNGHSFPLTFGQGTKLEIK	0.18
VH SEQ ID NO 610 / VL SEQ ID NO 502 (antibody, IgG4, V domains shown, humanized 11F2; IgG4 S228P/kappa) VH: QVQLQESGPGLVKPSQTLSLTCTVSGGSITSDSAWSWIRQPPGKGLEWIGYIQYSGSTNYNPSLKSRVTISVDTSKNQFSLKLSSVTAADTAVYYCARSVNYYGNSFAVGYWGQGTLVTVSS VL: EIVLTQSPATLSLSPGERATLSCRASQGVSDYLHWYQQKPGQAPRLLIKYTSQPATGIPARFSGSGSGTDFTLTISSLEPEDFAVYYCQNGHSFPLTFGQGTKLEIK	0.017
VH SEQ ID NO 610 / VL SEQ ID NO 494 (antibody, IgG4, V domains shown, humanized 11F2; IgG4 S228P/kappa) VH: QVQLQESGPGLVKPSQTLSLTCTVSGGSITSDSAWSWIRQPPGKGLEWIGYIQYSGSTNYNPSLKSRVTISVDTSKNQFSLKLSSVTAADTAVYYCARSVNYYGNSFAVGYWGQGTLVTVSS VL: EIVLTQSPATLSLSPGERATLSCRASQGVSDYLHWYQQKPGQAPRLLIKYASQPATGIPARFSGSGSGTDFTLTISSLEPEDVAVYYCQNGHSFPLTFGQGTKLEIK	0.017
VH SEQ ID NO 618 / VL SEQ ID NO 390 (antibody, IgG4, V domains shown, humanized 11F2; IgG4 S228P/kappa) VH: QVQLQESGPGLVKPSQTLSLTCTVSGYSISSDSAWSWIRQFPGKGLEWIGYIQYSGSTNYNPSLKSRVTISRDTSKNQFSLKLSSVTAADTAVYYCARSVNYYGNSFAVGPWGQGTLVTVSS VL: EIVLTQSPATLSLSPGERATLSCRASQGVSDYLAWYQQKPGEAPRLLIKYASQPATGIPARFSGSGSGTDFTLTISSLEPEDFAVYYCQNGHSFPLTFGQGTKLEIK	0.033
VH SEQ ID NO 618 / VL SEQ ID NO 366 (antibody, IgG4, V domains shown, humanized 11F2; IgG4 S228P/kappa) VH: QVQLQESGPGLVKPSQTLSLTCTVSGYSISSDSAWSWIRQFPGKGLEWIGYIQYSGSTNYNPSLKSRVTISRDTSKNQFSLKLSSVTAADTAVYYCARSVNYYGNSFAVGPWGQGTLVTVSS VL: EIVLTQSPATLSLSPGERATLSCRASQGLSDYLAWYQQKPGEAPRLLIKYASQPATGIPARFSGSGSGTDFTLTISSLEPEDFAVYYCQNGHSFPLTFGQGTKLEIK	0.021
VH SEQ ID NO 618 / VL SEQ ID NO 438 (antibody, IgG4, V domains shown, humanized 11F2; IgG4 S228P/kappa) VH: QVQLQESGPGLVKPSQTLSLTCTVSGYSISSDSAWSWIRQFPGKGLEWIGYIQYSGSTNYNPSLKSRVTISRDTSKNQFSLKLSSVTAADTAVYYCARSVNYYGNSFAVGPWGQGTLVTVSS VL: EIVLTQSPATLSLSPGERATLSCRASQGVSDYLAWYQQKPGQAPRLLIKYASQPATGIPARFSGSGSGTDFTLTISSLEPEDVAVYYCQNGHSFPLTFGQGTKLEIK	0.034
VH SEQ ID NO 618 / VL SEQ ID NO 446 (antibody, IgG4, V domains shown, humanized 11F2; IgG4 S228P/kappa) VH: QVQLQESGPGLVKPSQTLSLTCTVSGYSISSDSAWSWIRQFPGKGLEWIGYIQYSGSTNYNPSLKSRVTISRDTSKNQFSLKLSSVTAADTAVYYCARSVNYYGNSFAVGPWGQGTLVTVSS VL: EIVLTQSPATLSLSPGERATLSCRASQGVSDYLAWYQQKPGQAPRLLIKYTSQPATGIPARFSGSGSGTDFTLTISSLEPEDFAVYYCQNGHSFPLTFGQGTKLEIK	0.2

These reach a lower Kd. Values come first.

Kd [µM]	Binder
0.0011	VH SEQ ID NO 618 / VL SEQ ID NO 318 (antibody, IgG4, V domains shown, humanized 11F2; IgG4 S228P/kappa) VH: QVQLQESGPGLVKPSQTLSLTCTVSGYSISSDSAWSWIRQFPGKGLEWIGYIQYSGSTNYNPSLKSRVTISRDTSKNQFSLKLSSVTAADTAVYYCARSVNYYGNSFAVGPWGQGTLVTVSS VL: EIVLTQSPATLSLSPGERATLSCRASQGISDYLHWYQQKPGEAPRLLIKYTSQPATGIPARFSGSGSGTDFTLTISSLEPEDFAVYYCQNGHSFPLTFGQGTKLEIK
0.0013	VH SEQ ID NO 618 / VL SEQ ID NO 334 (antibody, IgG4, V domains shown, humanized 11F2; IgG4 S228P/kappa) VH: QVQLQESGPGLVKPSQTLSLTCTVSGYSISSDSAWSWIRQFPGKGLEWIGYIQYSGSTNYNPSLKSRVTISRDTSKNQFSLKLSSVTAADTAVYYCARSVNYYGNSFAVGPWGQGTLVTVSS VL: EIVLTQSPATLSLSPGERATLSCRASQGISDYLHWYQQKPGQAPRLLIKYASQPATGIPARFSGSGSGTDFTLTISSLEPEDFAVYYCQNGHSFPLTFGQGTKLEIK
0.0011	VH SEQ ID NO 618 / VL SEQ ID NO 326 (antibody, IgG4, V domains shown, humanized 11F2; IgG4 S228P/kappa) VH: QVQLQESGPGLVKPSQTLSLTCTVSGYSISSDSAWSWIRQFPGKGLEWIGYIQYSGSTNYNPSLKSRVTISRDTSKNQFSLKLSSVTAADTAVYYCARSVNYYGNSFAVGPWGQGTLVTVSS VL: EIVLTQSPATLSLSPGERATLSCRASQGISDYLHWYQQKPGEAPRLLIKYTSQPATGIPARFSGSGSGTDFTLTISSLEPEDFGVYYCQNGHSFPLTFGAGTKLELK
0.012	VH SEQ ID NO 618 / VL SEQ ID NO 310 (antibody, IgG4, V domains shown, humanized 11F2; IgG4 S228P/kappa) VH: QVQLQESGPGLVKPSQTLSLTCTVSGYSISSDSAWSWIRQFPGKGLEWIGYIQYSGSTNYNPSLKSRVTISRDTSKNQFSLKLSSVTAADTAVYYCARSVNYYGNSFAVGPWGQGTLVTVSS VL: EIVLTQSPATLSLSPGERATLSCRASQGISDYLAWYQQKPGQAPRLLIKYASQPATGIPARFSGSGSGTDFTLTISSLEPEDFAVYYCQNGHSFPLTFGQGTKLEIK
0.0012	VH SEQ ID NO 618 / VL SEQ ID NO 342 (antibody, IgG4, V domains shown, humanized 11F2; IgG4 S228P/kappa) VH: QVQLQESGPGLVKPSQTLSLTCTVSGYSISSDSAWSWIRQFPGKGLEWIGYIQYSGSTNYNPSLKSRVTISRDTSKNQFSLKLSSVTAADTAVYYCARSVNYYGNSFAVGPWGQGTLVTVSS VL: EIVLTQSPATLSLSPGERATLSCRASQGISDYLHWYQQKPGQAPRLLIKYTSQPATGIPARFSGSGSGRDFTLTISSLEPEDFAVYYCQNGHSFPLTFGAGTKLELK
0.0011	VH SEQ ID NO 618 / VL SEQ ID NO 382 (antibody, IgG4, V domains shown, humanized 11F2; IgG4 S228P/kappa) VH: QVQLQESGPGLVKPSQTLSLTCTVSGYSISSDSAWSWIRQFPGKGLEWIGYIQYSGSTNYNPSLKSRVTISRDTSKNQFSLKLSSVTAADTAVYYCARSVNYYGNSFAVGPWGQGTLVTVSS VL: EIVLTQSPATLSLSPGERATLSCRASQGLSDYLHWYQQKPGEAPRLLIKYASQPATGIPARFSGSGSGTDFTLTISSLEPEDFAVYYCQNGHSFPLTFGQGTKLEIK
0.001	VH SEQ ID NO 618 / VL SEQ ID NO 350 (antibody, IgG4, V domains shown, humanized 11F2; IgG4 S228P/kappa) VH: QVQLQESGPGLVKPSQTLSLTCTVSGYSISSDSAWSWIRQFPGKGLEWIGYIQYSGSTNYNPSLKSRVTISRDTSKNQFSLKLSSVTAADTAVYYCARSVNYYGNSFAVGPWGQGTLVTVSS VL: EIVLTQSPATLSLSPGERATLSCRASQGISDYLHWYQQKPGQAPRLLIKYTSQPATGIPARFSGSGSGTDFTLTISSLEPEDFAVYYCQNGHSFPLTFGAGTKLELK
0.00095	VH SEQ ID NO 618 / VL SEQ ID NO 358 (antibody, IgG4, V domains shown, humanized 11F2; IgG4 S228P/kappa) VH: QVQLQESGPGLVKPSQTLSLTCTVSGYSISSDSAWSWIRQFPGKGLEWIGYIQYSGSTNYNPSLKSRVTISRDTSKNQFSLKLSSVTAADTAVYYCARSVNYYGNSFAVGPWGQGTLVTVSS VL: EIVLTQSPATLSLSPGERATLSCRASQGISDYLHWYQQKPGQAPRLLIKYTSQPATGIPARFSGSGSGTDFTLTISSLEPEDFAVYYCQNGHSFPLTFGQGTKLEIK
